Key:
[1] = biological target: purified human PSA (shorter isoform), mCherry-Strep-tag II removed by thrombin (human, UniProt P55786-1 45-919); experiment: cryo-EM structure
cryo-EM structure = biological target: the molecule itself; experiment: cryo-EM structure

Chain of purified human PSA (shorter isoform), mCherry-Strep-tag II removed by thrombin (P55786 45-919): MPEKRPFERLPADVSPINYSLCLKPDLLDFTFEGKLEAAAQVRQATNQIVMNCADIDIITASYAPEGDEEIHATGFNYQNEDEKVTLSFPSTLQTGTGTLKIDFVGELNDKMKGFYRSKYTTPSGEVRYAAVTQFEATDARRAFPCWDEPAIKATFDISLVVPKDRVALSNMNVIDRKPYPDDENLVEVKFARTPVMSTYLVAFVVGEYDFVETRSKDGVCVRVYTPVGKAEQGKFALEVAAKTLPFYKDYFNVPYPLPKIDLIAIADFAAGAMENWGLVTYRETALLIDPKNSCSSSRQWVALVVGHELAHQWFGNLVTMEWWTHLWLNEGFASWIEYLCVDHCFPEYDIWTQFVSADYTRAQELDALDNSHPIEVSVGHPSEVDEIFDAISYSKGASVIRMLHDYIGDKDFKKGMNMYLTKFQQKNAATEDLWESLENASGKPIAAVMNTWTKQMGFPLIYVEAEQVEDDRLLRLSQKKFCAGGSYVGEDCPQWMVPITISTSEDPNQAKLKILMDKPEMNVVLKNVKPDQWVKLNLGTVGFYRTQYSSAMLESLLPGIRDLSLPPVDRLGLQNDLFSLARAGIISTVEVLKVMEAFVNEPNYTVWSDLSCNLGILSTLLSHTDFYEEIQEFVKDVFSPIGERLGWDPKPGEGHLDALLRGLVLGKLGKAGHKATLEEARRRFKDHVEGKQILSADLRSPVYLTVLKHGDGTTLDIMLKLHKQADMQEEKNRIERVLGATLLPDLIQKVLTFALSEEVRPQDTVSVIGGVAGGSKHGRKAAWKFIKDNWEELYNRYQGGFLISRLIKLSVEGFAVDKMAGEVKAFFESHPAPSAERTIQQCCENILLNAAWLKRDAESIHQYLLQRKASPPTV

binding result [1]: binds
B1: purified human SWELL1 homo-hexamer, tag removed by thrombin (cryo-EM sample) (natural protein)
chain: MIPVTELRYFADTQPAYRILKPWWDVFTDYISIVMLMIAVFGGTLQVTQDKMICLPCKWVTKDSCNDSFRGWAAPGPEPTYPNSTILPTPDTGPTGIKYDLDRHQYNYVDAVCYENRLHWFAKYFPYLVLLHTLIFLACSNFWFKFPRTSSKLEHFVSILLKCFDSPWTTRALSETVVEESDPKPAFSKMNGSMDKKSSTVSEDVEATVPMLQRTKSRIEQGIVDRSETGVLDKKEGEQAKALFEKVKKFRTHVEEGDIVYRLYMRQTIIKVIKFILIICYTVYYVHNIKFDVDCTVDIESLTGYRTYRCAHPLATLFKILASFYISLVIFYGLICMYTLWWMLRRSLKKYSFESIREESSYSDIPDVKNDFAFMLHLIDQYDPLYSKRFAVFLSEVSENKLRQLNLNNEWTLDKLRQRLTKNAQDKLELHLFMLSGIPDTVFDLVELEVLKLELIPDVTIPPSIAQLTGLKELWLYHTAAKIEAPALAFLRENLRALHIKFTDIKEIPLWIYSLKTLEELHLTGNLSAENNRYIVIDGLRELKRLKVLRLKSNLSKLPQVVTDVGVHLQKLSINNEGTKLIVLNSLKKMANLTELELIRCDLERIPHSIFSLHNLQEIDLKDNNLKTIEEIISFQHLHRLTCLKLWYNHIAYIPIQIGNLTNLERLYLNRNKIEKIPTQLFYCRKLRYLDLSHNNLTFLPADIGLLQNLQNLAITANRIETLPPELFQCRKLRALHLGNNVLQSLPSRVGELTNLTQIELRGNRLECLPVELGECPLLKRSGLVVEEDLFNTLPPEVKERLWRADKEQA
stoichiometry N (cryo-EM structure): 6
